According to the supplement of paper PMC10724198:
± gives the standard deviation of the averaged measurements.

These sequences were tested on Saccharomyces cerevisiae (assay: protein stability index of tFT-peptide fusion (C-terminal peptide) (PSI (0-1 scale)); higher = more stable (slower turnover)). Conditions: genetic background: wild type; temperature: 30 C.
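Further: PSI is a weighted mean of sequencing reads over stability bins, variants kept only with over 10 reads, mCherry proximal and sfGFP distal, peptide attached via GGGS linker.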

In order of falling protein stability index:
1. LRVSPVALPSSW  0.81 ± 0.13
2. FRCQHVRVSASF  0.799 ± 0.028
3. CGLLEGGRCRKE  0.7922 ± 0.0071
4. RYWCATHIGACL  0.788 ± 0.093
5. CIDCGRKDIARL  0.785 ± 0.066
6. PLYPPLPTSLSS  0.769 ± 0.027
7. WELPNRANDLSH  0.769 ± 0.11
8. FLPCPPSPPSPR  0.765 ± 0.06
9. EKKKKKAKKEKN  0.764 ± 0.045
10. RYHQFSFQSNKS  0.764 ± 0.072
11. KKKQTKGNQKPK  0.7623 ± 0.0011
12. LLSLHPRYPCTP  0.76 ± 0.047
13. LLDLCSNLLRSF  0.757 ± 0.11
14. PFSWRPLSSPTA  0.757 ± 0.004
15. CKKRSRCGNTIM  0.755 ± 0.15
16. VSRTVLSSDHRG  0.752 ± 0.076
17. PLLPPPPSLRSP  0.747 ± 0.1
18. KKKKNKNEKPKK  0.746 ± 0.074
19. SHPPPTLLSYLP  0.746 ± 0.0079
20. SLLPSHFASFSP  0.744 ± 0.03
21. TGFGSLWCRSSG  0.743 ± 0.062
22. GDGWLSGVPEEL  0.74 ± 0.017
23. RLFSPFTLPPFF  0.739 ± 0.063
24. TSRSPLVAPNPS  0.738 ± 0.083
25. RFVAFDFLGISL  0.736 ± 0.2
26. PPPPHDLLTPPS  0.736 ± 0.0079
27. GVSVICGFPVSC  0.732 ± 0.056
28. STDNNLISEPKT  0.731 ± 0.097
29. TYACRQEWRESR  0.731 ± 0.041
30. RSWSSIASSSTM  0.7285 ± 0.0037
31. AEESPVDKRPKS  0.728 ± 0.036
32. TGMRKDLVVSFW  0.728 ± 0.051
33. PPSHYPFTPADP  0.728 ± 0.046
34. TSWLHTCMKCSL  0.728 ± 0.017
35. DQVGLVLSDLIY  0.7272 ± 0.00085
36. PRSFPPRPPPPV  0.726 ± 0.051
37. RKVRRTRNSEGE  0.726 ± 0.011
38. NVLVSPFVPLSF  0.724 ± 0.0089
39. LSLTRIFQLTRW  0.721 ± 0.023
40. GFCTVVGGVVIG  0.7202 ± 0.0016
41. PPALPPCRSRLV  0.72 ± 0.049
42. PSIPPPSPSPPA  0.717 ± 0.027
43. PFPCPSLPPPFP  0.716 ± 0.022
44. GGRWGDSGMGVV  0.715 ± 0.026
45. QHHPRTTPHRPS  0.714 ± 0.0097
46. DTSRGDWEVFLI  0.713 ± 0.061
47. PGASAKPHSSAN  0.712 ± 0.031
48. LLRVLPPPPLPL  0.712 ± 0.11
49. GGGGGGLTGRVG  0.711 ± 0.009
50. PVSSFHICGPIC  0.71 ± 0.0098
51. SLPQYPSGPTLT  0.709 ± 0.029
52. RQKTKRKDQKIK  0.709 ± 0.023
53. DPPLSGRAKGPH  0.709 ± 0.02
54. GLFRESVLGSVW  0.708 ± 0.013
55. GWRACWVRAPRW  0.708 ± 0.018
56. SPPSPLALSLRF  0.707 ± 0.025
57. GPPSRPPRRTAP  0.707 ± 0.14
58. LSISPSPPPPLW  0.706 ± 0.052
59. ACRTGSSLLHPI  0.706 ± 0.06
60. SSTERLELERMS  0.705 ± 0.021
61. GLPFRYASYLFS  0.704 ± 0.031
62. LSPYFWITEDAS  0.7028 ± 0.0051
63. PNSPRCAIASPL  0.702 ± 0.046
64. LTPNSLCSFLSR  0.702 ± 0.013
65. PLPLPPPPHCLS  0.702 ± 0.027
66. QKTKTKKIRKKK  0.7014 ± 0.0018
67. MLFWPPPSLRMP  0.701 ± 0.0083
68. PLLPPLSPPLPS  0.7 ± 0.0078
69. VYEIQCGSNFKG  0.7 ± 0.052
70. SFLFDSPYFVAI  0.699 ± 0.018
71. KWEGKKINKKRE  0.699 ± 0.077
72. DGFWGGASHQGW  0.699 ± 0.0089
73. STPPPPALPEYQ  0.698 ± 0.023
74. QKLKPRKESSKN  0.698 ± 0.058
75. ISCSDNMLLLFD  0.697 ± 0.01
76. PPQGMTGGRGDR  0.697 ± 0.077
77. RDKIRMIDSYLT  0.696 ± 0.025
78. TLSLGCVDSHGV  0.696 ± 0.036
79. SYGPSRPARVPS  0.695 ± 0.05
80. PDRPYPPPLVAR  0.694 ± 0.058
81. KGRKKKKRKEQE  0.693 ± 0.016
82. DDAVTHTLWVSE  0.692 ± 0.012
83. EKTTDIKENERR  0.692 ± 0.029
84. GGGGLDGYGGGG  0.69 ± 0.029
85. FPAPPPPPRPAS  0.69 ± 0.033
86. NSSLSLPFGPPP  0.69 ± 0.011
87. VGQCVWRVGRSS  0.69 ± 0.044
88. GTALLSGGVLVI  0.689 ± 0.11
89. ESLSAVAAGRGM  0.689 ± 0.024
90. TGDTIQNTNCEM  0.689 ± 0.027
91. RRGAVGAAGLKG  0.68884 ± 7e-05
92. SFLVPRARPVLL  0.688 ± 0.041
93. FPGLHVNHPAWP  0.688 ± 0.027
94. LLSYLRNCCAEH  0.687 ± 0.035
95. CLHSKPSPESRT  0.687 ± 0.041
96. GRGVGWRACGVV  0.685 ± 0.018
97. RPLLPPVLPPPL  0.684 ± 0.019
98. PPPPRPSSDRFR  0.684 ± 0.016
99. HSPSKLSSSTAT  0.681 ± 0.032
100. CPLSPLPSSAAP  0.681 ± 0.042
101. GCGSYELLRSAS  0.68 ± 0.012
102. HPDPSPPTKPPP  0.68 ± 0.031
103. SQSEGTLELINK  0.679 ± 0.043
104. NKKDKKMNKDKR  0.6791 ± 0.0014
105. PPSPPSSHPLLP  0.679 ± 0.0078
106. IMRLCSSNRICG  0.678 ± 0.027
107. WREAVMKRQGGG  0.677 ± 0.014
108. GDFSLCPMFCAP  0.677 ± 0.071
109. SALSLDNLIHSY  0.676 ± 0.071
110. FNIPYLVQATGD  0.676 ± 0.09
111. SLQEIWRSKAKV  0.676 ± 0.054
112. RCKYLPSSRGMI  0.675 ± 0.011
113. AIYDSFRISYRT  0.675 ± 0.028
114. VAGLARVSLHGF  0.6746 ± 0.0052
115. IKRRKRNRKRGP  0.675 ± 0.041
116. PAPPPSSPRSIH  0.674 ± 0.032
117. KINKNMDYKYQK  0.673 ± 0.095
118. VGERGGIGARSG  0.673 ± 0.021
119. RLFLGSIGTLTS  0.673 ± 0.046
120. RKHIANPTDQND  0.673 ± 0.019
121. ARYTGPTRIRAE  0.672 ± 0.1
122. AVYWRRIRRGRA  0.6714 ± 0.0018
123. CVYGILPRPPDF  0.671 ± 0.035
124. LNTETNVVLLEG  0.671 ± 0.035
125. KLQPVTTTQTIG  0.6713 ± 0.004
126. FPPPLPLLSPLP  0.671 ± 0.079
127. GAFRQGYCLSGL  0.67 ± 0.025
128. PPFSSRTRPPLC  0.67 ± 0.023
129. GRLWVGGSVGGV  0.669 ± 0.012
130. PDPPAPLPPHPV  0.669 ± 0.053
131. CHGCSGFSYAPS  0.669 ± 0.039
132. MFVTQTGNRCKA  0.668 ± 0.018
133. IFWGFSFRGGGG  0.667 ± 0.012
134. WKNGYITGHRYM  0.66596 ± 0.00041
135. EESRVRTTNNTT  0.666 ± 0.057
136. FRFSELPTGFGQ  0.664 ± 0.058
137. LRPLSPPTLLPA  0.664 ± 0.022
138. SIKNTQRFKIRN  0.663 ± 0.034
139. GDRRRVFGSEQR  0.662 ± 0.088
140. VIRSLPSSALPL  0.662 ± 0.08
141. GRTGRSVGTGVR  0.662 ± 0.025
142. VELALPRGSTVV  0.6596 ± 0.005
143. LSAFLLLMPRLP  0.659 ± 0.01
144. YVVPLGIPPFKD  0.6591 ± 0.00099
145. VTKNRHRQTETQ  0.658 ± 0.036
146. PMLGMSTLGDRF  0.657 ± 0.038
147. LAPNPGVLFCGI  0.656 ± 0.044
148. RSNVGCDLKQTC  0.6556 ± 0.0027
149. RLTPLSSSRLPP  0.6556 ± 0.0043
150. RKNNTVIKQIKR  0.656 ± 0.054
151. PRQACPLPLPHV  0.655 ± 0.029
152. QQLILCLFSPFP  0.655 ± 0.015
153. QEKQDIIEDHTT  0.655 ± 0.019
154. VRSPLEHTVPFS  0.655 ± 0.057
155. GVLRIRIGLGRG  0.653 ± 0.028
156. RVPLSPSLRYFV  0.653 ± 0.026
157. DGWTLCRVGCVG  0.652 ± 0.061
158. SRIFLFPTPTLF  0.651 ± 0.096
159. PASPPPAPRPPP  0.65 ± 0.0081
160. GGWDLIASVREF  0.649 ± 0.017
161. ANRGYRYGASRV  0.649 ± 0.017
162. PSSDVLLFALSF  0.6486 ± 0.0049
163. FCTDFDTLCREC  0.647 ± 0.021
164. LSPPYCPGALTL  0.646 ± 0.0081
165. VADGEAGPLFKI  0.644 ± 0.069
166. TPQLSYYKGNNL  0.639 ± 0.013
167. FSSSMCLGMRLR  0.639 ± 0.096
168. QESRRTTVEKQA  0.638 ± 0.011
169. VLVAWWGLGGGV  0.637 ± 0.069
170. LAPPPRPPLAPP  0.637 ± 0.03
171. SGCIYLLQTPME  0.636 ± 0.012
172. PRLRPFATPNCF  0.636 ± 0.046
173. LGRRGLSMCGCV  0.634 ± 0.018
174. WSFQTRSVNICI  0.633 ± 0.021
175. WVWGVLGAVWFG  0.632 ± 0.0091
176. WPTPRVGIDLEN  0.631 ± 0.05
177. LCDACLSLVFLW  0.629 ± 0.031
178. PPRPPPLPPSRP  0.627 ± 0.032
179. RATMFFLFPMFP  0.622 ± 0.024
180. LWCFVVGEVNGV  0.6209 ± 0.0034
181. KKKKKKKKKKQN  0.62 ± 0.039
182. PERPDPPVNDRN  0.62 ± 0.029
183. SVWSSIMSVSFL  0.6179 ± 0.00082
184. HCPRPRPTCRPP  0.615 ± 0.1
185. PRTRSYTRCGVT  0.614 ± 0.024
186. PRPPLPSTPEAA  0.612 ± 0.024
187. FPRPSLPFPPHR  0.609 ± 0.00064
188. AWGFHDAFGLGC  0.605 ± 0.032
189. QYILGLLLVPLG  0.587 ± 0.032
190. VCTLLWLLSLVS  0.573 ± 0.017
191. GVGSCVILRLRN  0.557 ± 0.02
192. PMNVSDPRKVGR  0.556 ± 0.037
193. AMSLWFGFFHFV  0.555 ± 0.018
194. CRMEARHSVLKS  0.554 ± 0.0087
195. PSPWPPPPSDPP  0.552 ± 0.12
196. LGRMCSRITVGV  0.543 ± 0.026
197. LSSVFLGICIMS  0.543 ± 0.11
198. ATDAWNKNKESS  0.542 ± 0.04
199. WSLSSHCMLMVE  0.5394 ± 0.0051
200. YRDTVYKVRYSN  0.537 ± 0.015
201. FGTVIEVVCGVM  0.5277 ± 0.0014
202. ALVLLIPLSLLL  0.522 ± 0.11
